The values below come from the supplement of paper PMC10126150.

For this series, the system named is ATP. Put plainly: switch fluorescence ratio, 500 uM ATP over buffer (Cy3 cluster intensity, sum of 5 cycles each) (fold (ratio)); higher = stronger signal-on switching upon ATP binding; sequences stand for … in TCGTCGGCAGCGTCAGATGTGTATAAGAGACAGTTTTTTTTTTTTTTTTTTTTTTTTT…TC. Conditions: aptamer strand: ATP DNA aptamer (quencher-CACCTGGGGGAGTATTGCGGAGGAAGG + anchor), 100 nM annealed; ATP concentration: 500 uM. The essentials: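 Exposure to 500 uM ATP lasted 15 min at 22 °C before imaging, and a selection-buffer image was taken beforehand, for Cy3-labelled switching-strand clusters on a modified Illumina MiSeq flow-cell annealed to 100 nM quencher-labelled ATP aptamer. Five buffer/ATP cycles were run with NaOH stripping and re-annealing between them. The fluorescence ratio per cluster is summed target-cycle over summed buffer-cycle Cy3 intensity, averaged per switch-domain sequence. Clusters outside 100-1000 RFU were excluded.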

± gives the standard deviation of the averaged measurements.

With TCCAGGTGGG, the switch fluorescence ratio turned out to be 2.39 ± 0.19.
As to TCCAGGTTAG, the switch fluorescence ratio came to 1.17 ± 0.03.
Turning to TCCAGTCAAA, the switch fluorescence ratio was 1.01 ± 0.075.
For TCCAGTTTTT, the switch fluorescence ratio stood at 0.999 ± 0.015.
Take TCCATAAAAA: the switch fluorescence ratio was found to be 0.999 ± 0.022.
For TCCATCTGCG, the switch fluorescence ratio is 1.097 ± 0.007.
As for TCCATGTATC, the switch fluorescence ratio amounted to 0.984 ± 0.02.
With TCCATTAGGA, the switch fluorescence ratio was 0.9978 ± 0.0082.
On to TCCATTGTGT, for which the switch fluorescence ratio was found to be 0.992 ± 0.029.
In the case of TCCATTTTGT, the switch fluorescence ratio turned out to be 1.01 ± 0.05.
For TCCATTTTTT, the switch fluorescence ratio is 0.992 ± 0.035.
With TCCCAAAATG, the switch fluorescence ratio was 1.01 ± 0.039.
Regarding TCCCACGGCC, the switch fluorescence ratio was 1.083 ± 0.0017.
Consider TCCCATTTGG, for which the switch fluorescence ratio came out at 1.03 ± 0.072.
Turning to TCCCATTTTT, the switch fluorescence ratio was found to be 1.01 ± 0.038.
For TCCCCGTCGA, the switch fluorescence ratio stood at 1.88 ± 1.2.
The same measure for TCCCGGCAGA: 0.997 ± 0.013; for TCCCGGGAAA: 1.04 ± 0.082; for TCCCGTTATT: 1.01 ± 0.025.
As for TCCCTACGAT, the switch fluorescence ratio worked out at 1.06 ± 0.016.
On to TCCCTTGGGT, for which the switch fluorescence ratio was found to be 1 ± 0.0092.
Consider TCCCTTTCGA, for which the switch fluorescence ratio is 1.21 ± 0.063.
On to TCCGACTCG, for which the switch fluorescence ratio worked out at 1.09 ± 0.041.
As for TCCGAGCCTT, the switch fluorescence ratio worked out at 2.08 ± 0.12.
In the case of TCCGAGGGGT, the switch fluorescence ratio turned out to be 1.67 ± 0.91.
Turning to TCCGAGTTGG, the switch fluorescence ratio turned out to be 1.05 ± 0.023.
The same measure for TCCGATTATG: 1.0175 ± 0.00092.
On to TCCGCGGAG, for which the switch fluorescence ratio is 1.15 ± 0.13.
Consider TCCGCTTGAG, for which the switch fluorescence ratio was 1.36 ± 0.016.
Regarding TCCGGAGAAT, the switch fluorescence ratio came out at 1.79 ± 1.1.
For the sequence TCCGGGGCAA, the switch fluorescence ratio was found to be 3.73 ± 2.
Turning to TCCGGGGCGG, the switch fluorescence ratio was 1.11 ± 0.06.
As for TCCGGGGTCG, the switch fluorescence ratio is 1.034 ± 0.0062.
Then TCCGGGGTGT, with 1.26 ± 0.44; and TCCGGGTTGT, with 1.04 ± 0.056.
TCCGGTAGTT: the switch fluorescence ratio was 1.06 ± 0.013.
The same measure for TCCGGTCAGC: 1.13 ± 0.15; for TCCGTAAACG: 1.09 ± 0.041.
As for TCCGTAGTGT, the switch fluorescence ratio is 2.12 ± 0.37.
Regarding TCCGTCCCCG, the switch fluorescence ratio amounted to 1.35 ± 0.058.
For TCCGTCGCAA, the switch fluorescence ratio stood at 2.23 ± 0.41.
Consider TCCGTCGGGG, for which the switch fluorescence ratio is 1.01 ± 0.033.
Then TCCGTGGGGA, with 1.16 ± 0.25; and TCCGTTGATA, with 1.165 ± 0.01.
In the case of TCCGTTGCGG, the switch fluorescence ratio was 1.03 ± 0.034.
Then TCCGTTGGCT, with 1.07 ± 0.062; and TCCGTTTCTG, with 0.971 ± 0.018; and TCCTAACTTG, with 1.01 ± 0.014.
Regarding TCCTAAGGGC, the switch fluorescence ratio was found to be 1.04 ± 0.038.
Regarding TCCTAAGGGG, the switch fluorescence ratio was determined as 1.79 ± 1.
Consider TCCTACTGGG, for which the switch fluorescence ratio is 1.04 ± 0.028.
In the case of TCCTCAAATG, the switch fluorescence ratio was 1.607 ± 0.002.
In the case of TCCTCAGGTG, the switch fluorescence ratio was determined as 4.07 ± 0.33.
As for TCCTCAGTGC, the switch fluorescence ratio stood at 1.93 ± 0.13.
Consider TCCTCATTTG, for which the switch fluorescence ratio stood at 1.005 ± 0.0078.
Consider TCCTCGAGCT, for which the switch fluorescence ratio worked out at 1.82 ± 1.2.
As for TCCTCTTAAG, the switch fluorescence ratio is 1.09 ± 0.03.
On to TCCTGAATGA, for which the switch fluorescence ratio is 1 ± 0.03.
Regarding TCCTGAGGCG, the switch fluorescence ratio came out at 1.02 ± 0.022.
Take TCCTGATTTT: the switch fluorescence ratio came out at 1.02 ± 0.037.
Consider TCCTGCTCCG, for which the switch fluorescence ratio was 1.56 ± 0.13.
As for TCCTGCTGTT, the switch fluorescence ratio stood at 0.998 ± 0.02.
With TCCTGGGGTC, the switch fluorescence ratio came to 1.05 ± 0.043.
As for TCCTGGTGCG, the switch fluorescence ratio came to 1.13 ± 0.024.
Regarding TCCTGTTACA, the switch fluorescence ratio is 1.03 ± 0.017.
With TCCTTGATCC, the switch fluorescence ratio turned out to be 1.02 ± 0.089.
Regarding TCCTTGATTG, the switch fluorescence ratio came to 0.974 ± 0.057.
On to TCCTTGGCTT, for which the switch fluorescence ratio was 1.47 ± 0.49.
TCCTTGGGGA: the switch fluorescence ratio amounted to 1.08 ± 0.086.
With TCCTTGTGGT, the switch fluorescence ratio came to 0.973 ± 0.037.
For TCCTTTGGAT, the switch fluorescence ratio stood at 1.05 ± 0.049.
TCCTTTGTAT: the switch fluorescence ratio came out at 1.1 ± 0.015.
Regarding TCCTTTTAAC, the switch fluorescence ratio is 1.25 ± 0.085.
As for TCGAAATATT, the switch fluorescence ratio came to 1.55 ± 0.81.
Take TCGAACGTTT: the switch fluorescence ratio was 1.324 ± 0.0088.
On to TCGAAGAGTT, for which the switch fluorescence ratio was determined as 0.994 ± 0.033.
Consider TCGAAGGGCG, for which the switch fluorescence ratio was found to be 1.021 ± 0.0057.
On to TCGAATGGCC, for which the switch fluorescence ratio was found to be 0.994 ± 0.024.
TCGACCGATT: the switch fluorescence ratio is 1.03 ± 0.037.
The same measure for TCGACGGGAT: 2.42 ± 0.31.
TCGAGAAGGT: the switch fluorescence ratio amounted to 0.993 ± 0.054.
Take TCGAGAGAGG: the switch fluorescence ratio was found to be 1.01 ± 0.049.
The same measure for TCGAGATCCG: 0.996 ± 0.018; for TCGAGCAGGG: 1.07 ± 0.055; for TCGAGGCACT: 1.28 ± 0.17.
With TCGAGGCGGG, the switch fluorescence ratio turned out to be 1.18 ± 0.21.
For TCGAGGGAGG, the switch fluorescence ratio was 0.994 ± 0.075.
TCGAGGGGGT: the switch fluorescence ratio was found to be 0.986 ± 0.054.
On to TCGAGGTATA, for which the switch fluorescence ratio worked out at 2.94 ± 2.6.
Consider TCGAGTATAT, for which the switch fluorescence ratio was found to be 0.981 ± 0.021.
Regarding TCGAGTCGTG, the switch fluorescence ratio was 0.9922 ± 0.0054.
Then TCGATAGGGA, with 1.01 ± 0.03; and TCGATGCGTG, with 1.01 ± 0.011; and TCGATGTTTC, with 1.01 ± 0.026.
Turning to TCGATTGGTG, the switch fluorescence ratio worked out at 1.01 ± 0.013.
As to TCGATTTGGT, the switch fluorescence ratio worked out at 0.9749 ± 0.008.
As for TCGATTTTTT, the switch fluorescence ratio came out at 1.01 ± 0.028.
Take TCGCAGCTTG: the switch fluorescence ratio was found to be 1.05 ± 0.029.
In the case of TCGCATAGGT, the switch fluorescence ratio was 1.1 ± 0.12.
TCGCCGCTTT: the switch fluorescence ratio stood at 1.76 ± 0.11.
TCGCCGTATG: the switch fluorescence ratio worked out at 0.999 ± 0.018.
Turning to TCGCGCAGAA, the switch fluorescence ratio stood at 1.061 ± 0.0063.
The same measure for TCGCGCGGTA: 1.007 ± 0.01.
For TCGCGCTATT, the switch fluorescence ratio was 1.34 ± 0.39.
As for TCGCGGGCTA, the switch fluorescence ratio is 1.04 ± 0.046.
Regarding TCGCGGTCGG, the switch fluorescence ratio came to 0.997 ± 0.015.
In the case of TCGCGGTGGC, the switch fluorescence ratio was 1 ± 0.029.
Consider TCGCGTTTCT, for which the switch fluorescence ratio came out at 1.03 ± 0.088.
With TCGCGTTTTT, the switch fluorescence ratio stood at 0.994 ± 0.031.
Consider TCGCTAACGG, for which the switch fluorescence ratio worked out at 1.07 ± 0.018.
Take TCGCTCCTGG: the switch fluorescence ratio was determined as 1 ± 0.046.
Take TCGCTCTGTT: the switch fluorescence ratio was found to be 0.991 ± 0.011.
The same measure for TCGCTTGCGG: 1 ± 0.032; for TCGCTTGGGG: 1 ± 0.013; for TCGCTTTTTG: 1.01 ± 0.027.
Take TCGGAACTCG: the switch fluorescence ratio turned out to be 0.9824 ± 0.0063.
Then TCGGAAGTAT, with 0.9629 ± 0.0083.
With TCGGACGGAA, the switch fluorescence ratio was determined as 2.17 ± 0.21.
The same measure for TCGGACGGGG: 1.03 ± 0.015.
With TCGGAGCAGG, the switch fluorescence ratio was found to be 1.4 ± 0.058.
